Read-outs that look alike come from different tables or passages of the source.
What was measured:
Assay in all cases: enzyme inhibition assay
[1] = target: Recombinant human cathepsin S (human) (UniProt P25774)
[2] = target: Recombinant human cathepsin L (human) (UniProt P07711)
[3] = target: Recombinant human cathepsin S (human) (UniProt P25774); remark: listed apart in the source

UniProt P25774, sequence (P25774 17-331): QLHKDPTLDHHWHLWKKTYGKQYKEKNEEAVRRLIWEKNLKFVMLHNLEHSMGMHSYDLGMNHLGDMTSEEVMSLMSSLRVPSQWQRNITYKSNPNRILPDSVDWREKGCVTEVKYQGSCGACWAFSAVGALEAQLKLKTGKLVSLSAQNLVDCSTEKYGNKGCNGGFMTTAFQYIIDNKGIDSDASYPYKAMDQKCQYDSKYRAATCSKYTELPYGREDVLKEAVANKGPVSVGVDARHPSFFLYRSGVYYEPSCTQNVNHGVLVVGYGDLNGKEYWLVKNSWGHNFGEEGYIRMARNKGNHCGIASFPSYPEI
UniProt P07711, sequence (P07711 18-333): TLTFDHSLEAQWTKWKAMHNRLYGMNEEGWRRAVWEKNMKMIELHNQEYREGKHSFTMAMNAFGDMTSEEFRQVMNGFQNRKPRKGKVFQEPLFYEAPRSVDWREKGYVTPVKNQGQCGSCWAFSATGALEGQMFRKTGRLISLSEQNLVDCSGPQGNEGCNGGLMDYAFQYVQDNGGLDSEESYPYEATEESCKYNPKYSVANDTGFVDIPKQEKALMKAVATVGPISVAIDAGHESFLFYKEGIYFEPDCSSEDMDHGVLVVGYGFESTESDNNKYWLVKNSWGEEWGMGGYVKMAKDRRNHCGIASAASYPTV

| Substance | Ki [1] [nM] | Ki [2] [nM] | Ki [3] [nM] |
| --- | --- | --- | --- |
| Her-HC-CTSSpp IgG (from UniProt P25774 17-113) (antibody) | 6.03 | 49.3 | – |
| Syn-LC-CTSSpp Fab (from UniProt P25774 17-113) | 2.12 | 24.5 | 2.21 |
